This is an account of results in publication PMC4269863.

For experiment [1], the target named is envelope glycoproteins gp120/gp41 of HIV-1 NL4.3 virus with gp41 N674D (HIV-1 NL4.3).
For experiment [2], the target named is envelope glycoproteins gp120/gp41 of HIV-1 NL4.3 virus with gp41 N611Q/N637Q (HIV-1 NL4.3).
The target in experiment [3] is envelope glycoproteins gp120/gp41 of HIV-1 NL4.3 virus with gp41 N625Q/N637Q/N674Q (HIV-1 NL4.3).
Experiment [4] addresses envelope glycoproteins gp120/gp41 of HIV-1 NL4.3 virus with gp41 N625Q/N674Q (HIV-1 NL4.3).
In experiment [5] the target is envelope glycoproteins gp120/gp41 of HIV-1 NL4.3 virus with gp41 N637Q/N674Q (HIV-1 NL4.3).
In experiment [6] the target is envelope glycoproteins gp120/gp41 of HIV-1 NL4.3 virus with gp41 N611Q/N637Q/N674Q (HIV-1 NL4.3).
Experiment [7] addresses envelope glycoproteins gp120/gp41 of HIV-1 NL4.3 virus with gp41 N625Q/N637Q (HIV-1 NL4.3).
Experiment [8] concerns the target HIV-1 transmembrane envelope glycoprotein gp41 (immobilised for SPR) (HIV-1 (strain not stated)) (UniProt P04578). Nature of the experiment: SPR; gp120 and gp41 covalently immobilised by amine coupling on a CM4 chip (about 115 and 45 RU), HSA as control surface; CBAs injected as two-fold dilutions; Biacore T200, 25°C, HBS-P (10 mM HEPES, 150 mM NaCl, 0.05% surfactant P20, pH 7.4) with 10 mM CaCl2; 1:1 Langmuir model. A general note: In SPR one partner is held on a chip, and binding of the other changes the refractive index at the surface.

Experiment [9] deals with HIV-1 surface envelope glycoprotein gp120 (immobilised for SPR) (HIV-1 (strain not stated)) (UniProt P04578). The description is as above.
In experiment [10] the target is envelope glycoproteins gp120/gp41 of HIV-1 NL4.3 virus with gp41 N611Q (HIV-1 NL4.3).
Experiment [11] deals with envelope glycoproteins gp120/gp41 of HIV-1 NL4.3 virus with gp41 N625Q (HIV-1 NL4.3).
Experiment [12] concerns the target envelope glycoproteins gp120/gp41 of HIV-1 NL4.3 virus with gp41 N674Q (HIV-1 NL4.3).
In experiment [13] the target is envelope glycoproteins gp120/gp41 of HIV-1 NL4.3 virus with gp41 N637Q (HIV-1 NL4.3).
The target of experiment [14] is envelope glycoproteins gp120/gp41 of wild-type HIV-1 NL4.3 virus (HIV-1 NL4.3).
For the next experiment, the target named is soluble CD4 (UniProt P01730). Briefly: ELISA; 0.5 μg soluble CD4 coated on maxisorp strips; about 48 ng p24 of virus lysed with Triton-X100 added 1 h at 37°C; bound gp120 detected with sheep antibody D7324; normalised to WT∆Env virus, relative to WT (100%).

Sequence of actinohivin (Q9KWN0 47-160): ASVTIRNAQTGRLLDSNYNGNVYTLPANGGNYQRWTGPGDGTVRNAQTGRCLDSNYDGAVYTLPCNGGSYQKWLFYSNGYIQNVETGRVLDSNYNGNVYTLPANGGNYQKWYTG

On to “actinohivin (from UniProt Q9KWN0 47-160) (natural protein)”, for which the EC50 of inhibition of cell-free virus infection of C8166 cells (eGFP, flow cytometry, 72 h) in [1] was 2.1 nM; in experiment [2], 3 nM; in experiment [3], 3.2 nM; in experiment [4], 3.2 nM; in [5] it was 4.3 nM; in [6] it was 3.6 nM. The EC50 of inhibition of cell-free virus infection of C8166 cells (eGFP, flow cytometry, 72 h) in [7] was 3.8 nM; in experiment [10], 5.4 nM; in experiment [11], 8.1 nM; in experiment [12], 8.3 nM; in experiment [13], 15 nM; in experiment [14], 5.2 nM. Besides, the Kd (usually a measure of binding affinity in units of concentration) in [8] was 2 nM; in experiment [9], 14 nM.
As for “Hippeastrum hybrid agglutinin (natural protein)”, the EC50 of inhibition of cell-free virus infection of C8166 cells (eGFP, flow cytometry, 72 h) in experiment [1] stood at 1.9 nM; in [2], 2.7 nM; in [3], 2.1 nM; in experiment [4], 1.3 nM; in experiment [5] it was 1.6 nM; in [6] it was 2.8 nM. Also, the EC50 of inhibition of cell-free virus infection of C8166 cells (eGFP, flow cytometry, 72 h) turned out to be 1.4 nM in experiment [7]; 1.6 nM in [10]; 1.4 nM in experiment [11]; 1.3 nM in [12]; 3.7 nM in experiment [13]; 0.9 nM in experiment [14]. Further, the Kd is 0.4 nM in [8] and 0.5 nM in experiment [9].
As to “Urtica dioica agglutinin (natural protein)”, the EC50 of inhibition of cell-free virus infection of C8166 cells (eGFP, flow cytometry, 72 h) in experiment [1] amounted to 34 nM; in experiment [2], 63 nM; in [3], 35 nM; in experiment [4], 30 nM; in experiment [5], 28 nM; in [6], 52 nM. Besides, the EC50 of inhibition of cell-free virus infection of C8166 cells (eGFP, flow cytometry, 72 h) worked out at 51 nM in [7]; 32 nM in experiment [10]; 27 nM in experiment [11]; 32 nM in experiment [12]; 57 nM in experiment [13]; 25 nM in experiment [14]. Further, the values for the Kd in experiment [8] and in experiment [9] were 3.7 nM and 9 nM, respectively.
Take “envelope glycoproteins gp120/gp41 of HIV-1 NL4.3 virus with gp41 N625Q (complex)”: the binding efficiency, percent of WT with soluble CD4 was 130 % of WT.
